{
  "source": "paper PMC3751641",
  "about": "“Mena/VASP and αII-Spectrin complexes regulate cytoplasmic actin networks in cardiomyocytes and protect from conduction abnormalities and dilated cardiomyopathy” (Cell Communication and Signaling : CCS, 2013)",
  "binders": {"B1": {"name": "Mena (mammalian Enabled) (natural protein, mouse (endogenous in mouse heart), UniProt Q03173-3 1-541, looked up)", "chain": "MSEQSICQARAAVMVYDDANKKWVPAGGSTGFSRVHIYHHTGNNTFRVVGRKIQDHQVVINCAIPKGLKYNQATQTFHQWRDARQVYGLNFGSKEDANVFASAMMHALEVLNSQEAGPTLPRQNSQLPAQVQNGPSQEELEIQRRQLQEQQRQKELERERMERERLERERLERERLERERLEQEQLERQRQEREHVERLERERLERLERERQERERERLEQLEREQVEWERERRMSNAAAPASAETPLNPELGDSSASEPGLQAASQPAESPTPQGLVLGPPAPPPPPPLPSGPAYASALPPPPGPPPPPPLPSTGPPPPPPPPPPLPNQAPPPPPPPPAPPLPASGIFSGSTSEDNRPLTGLAAAIAGAKLRKVSRVEDGSFPGGGNTGSVSLASSKADAGRGNGPLPLGGSGLMEEMSALLARRRRIAEKGSTIETEQKEDRNEDAEPITAKAPSTSTPEPTRKPWERTNTMNGSKSPVISRPKSTPSSQPSANGVQTEGLDYDRLKQDILDEMRKELAKLKEELIDAIRQELSKSNTA", "notes": "mouse Mena, endogenous; two isoforms exist in the mouse heart, the general one (~80 kDa, 541 aa) and the neuronal splice variant (~140 kDa); source: endogenous, adult mouse heart lysate"}},
  "key": {"[1]": {"molecular_target": "T1, GST-α9A (α9 repeat of the αII-Spectrin splice variant SH3i, with the alternatively spliced 20 amino acids) (mouse, UniProt P16546 893-1088)", "T1 construct": "mouse αII-Spectrin, splice variant SH3i (protein ID AAI50942), amino acids Q893-E1088: the α9 repeat with the SH3 domain and the 20-residue insert T1053-L1072; numbers count on: SH3i, AAI50942; cDNA subcloned into the pGEX-6P2 vector", "test": "pull-down; 5 μg GST or equimolar GST-fusion proteins immobilised on glutathione sepharose, incubated with cleared adult mouse heart lysate (40 mM Hepes-NaOH pH 7.4, 75 mM NaCl, 1% NP40, protease inhibitors); blot with anti-Mena", "details": "one partner purified"}, "[2]": {"molecular_target": "T2, SH3i, αII-Spectrin splice variant, endogenous in adult mouse heart (mouse (endogenous in mouse heart), UniProt P16546 1-2472)", "T2 construct": "source: endogenous, adult mouse heart lysate", "test": "co-IP; adult mouse heart lysate incubated with 5 μg purified anti-Mena, anti-αII-Spectrin or anti-SH3i antibodies, then protein A-sepharose; washed in lysis buffer; Western blot; GST-specific antibodies as control", "details": "partners not purified"}},
  "data": [
    {"binder": "B1", "values": [
      {"measurement": "fold more Mena precipitated than by α9 or SH3", "setting": "[1]", "result": "≥ 10", "unit": "fold"},
      {"measurement": "fold more Mena precipitated than by general αII-Spectrin-specific antibodies", "setting": "[2]", "result": 8, "unit": "fold"}
    ]}
  ]
}
